The chains are these.
B1: NB-AGT-3, HA-tagged clone from the phage display vector (VHH)
VHH: QVQLVESGGGLVQAGGSLILSCAASGFTFGHYAIGWFRQAPGKEREGVSCINSNDGSTYYADSVKGRFTISSDNAKNTVYLQMNSLKPEDTAVYYCAADYPPYYCSGYGWPSDGINYWGKGTQVTVS
B2: NB-AGT-2, HA-tagged clone from the phage display vector (VHH)
VHH: QVQLVESGGGLVQAGGSLRLSCAASGRTFSSYAMGWFRQAPGKEREFVAAINWSGGSTFYADSVKGRFTISRDNAKNTVYLQMNSLKPEDTAVYYCAAARADPYYSISYYSTTHEYDYWGQGTQVTVS
B3: NB-AGT-6, HA-tagged clone from the phage display vector (VHH)
VHH: QVQLVESGGGSVQTGGSLRLACVASGFTSDHYSIGWFRQAPGKEREGVSCIGMHDGSTKYAESVKGRFTISSDNDKNTVYLQMNSLKPEDTAVYYCAAGPLVLLDSDTYQSWGEGTQVTVS
B4: NB-AGT-4, HA-tagged clone from the phage display vector (VHH)
VHH: QVQLVESGGGLVQSGGSLRLSCVASGGTFSTWSMGWFRQAPGKEREFVAVISWSGTIADYGDSVKGRFTISRDNAKNTVYLQMNSLKPEDTAVYYCAADPVGRVLYSDVGWQYWGQGTQVTVS
B5: NB-AGT-3 (VHH)
VHH: B1 VHH
B6: NB-AGT-2 (VHH)
VHH: B2 VHH
B7: NB-AGT-6 (VHH)
VHH: B3 VHH
B8: NB-AGT-4 (VHH)
VHH: B4 VHH

These results are taken from publication doi:10.1101/2025.04.12.648492 (bioRxiv, 2025).

The target of the first assay is T1, alanine:glyoxylate aminotransferase 1, wild-type (major haplotype) (Homo sapiens, major haplotype, UniProt P21549). Nature of the assay: ELISA. In general terms: ELISA stands for enzyme-linked immunosorbent assay.
T1 sequence (P21549 whole entry): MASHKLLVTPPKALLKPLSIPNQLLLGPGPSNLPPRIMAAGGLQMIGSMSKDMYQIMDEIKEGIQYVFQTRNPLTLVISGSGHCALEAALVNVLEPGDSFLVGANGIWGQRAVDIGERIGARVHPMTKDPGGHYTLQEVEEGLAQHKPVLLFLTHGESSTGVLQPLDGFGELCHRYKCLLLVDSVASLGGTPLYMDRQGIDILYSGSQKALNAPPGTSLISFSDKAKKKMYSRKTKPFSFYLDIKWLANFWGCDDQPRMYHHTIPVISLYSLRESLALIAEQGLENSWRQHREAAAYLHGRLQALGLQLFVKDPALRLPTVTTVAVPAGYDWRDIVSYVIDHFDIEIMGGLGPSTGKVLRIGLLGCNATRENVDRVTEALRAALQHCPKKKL
Regarding B1, the binding result was “binds”.

Take B2: the binding result is recorded as “binds”.

As for B3, the binding result is reported as “binds”.

Regarding B4, the binding result was “binds”.

The target in another assay is T1, alanine:glyoxylate aminotransferase 1, …. Nature of the assay: SPR. Background: Surface plasmon resonance follows binding to a sensor surface in real time, without labels.
Consider B5, for which the binding result was “binds”.

Turning to B6, the binding result is on record as “binds”.

On to B7, for which the binding result is “binds”.

B8: the binding result is reported as “binds”.
